Data: patent publication US5493008A, “Two non-contiguous regions contribute to nidogen binding to a single EGF-like motif of the laminin γ1 chain” (The University Of Virginia Patent Foundation, priority 1994, dated 1996)
Where two headings read alike, the source gives them in different places. Where no end group is shown, it is not given here. The star is where a group is joined. Succinimide(1-Et,3-yl) = CCN1C(=O)CC(*)C1=O

Legend:
nidogen = molecular target: T1, nidogen (Mus musculus, UniProt P10493); conditions: Fox et al. 1991; read-out: κD of the high affinity binding site for nidogen; cited from earlier work
T1 sequence (P10493 29-1245): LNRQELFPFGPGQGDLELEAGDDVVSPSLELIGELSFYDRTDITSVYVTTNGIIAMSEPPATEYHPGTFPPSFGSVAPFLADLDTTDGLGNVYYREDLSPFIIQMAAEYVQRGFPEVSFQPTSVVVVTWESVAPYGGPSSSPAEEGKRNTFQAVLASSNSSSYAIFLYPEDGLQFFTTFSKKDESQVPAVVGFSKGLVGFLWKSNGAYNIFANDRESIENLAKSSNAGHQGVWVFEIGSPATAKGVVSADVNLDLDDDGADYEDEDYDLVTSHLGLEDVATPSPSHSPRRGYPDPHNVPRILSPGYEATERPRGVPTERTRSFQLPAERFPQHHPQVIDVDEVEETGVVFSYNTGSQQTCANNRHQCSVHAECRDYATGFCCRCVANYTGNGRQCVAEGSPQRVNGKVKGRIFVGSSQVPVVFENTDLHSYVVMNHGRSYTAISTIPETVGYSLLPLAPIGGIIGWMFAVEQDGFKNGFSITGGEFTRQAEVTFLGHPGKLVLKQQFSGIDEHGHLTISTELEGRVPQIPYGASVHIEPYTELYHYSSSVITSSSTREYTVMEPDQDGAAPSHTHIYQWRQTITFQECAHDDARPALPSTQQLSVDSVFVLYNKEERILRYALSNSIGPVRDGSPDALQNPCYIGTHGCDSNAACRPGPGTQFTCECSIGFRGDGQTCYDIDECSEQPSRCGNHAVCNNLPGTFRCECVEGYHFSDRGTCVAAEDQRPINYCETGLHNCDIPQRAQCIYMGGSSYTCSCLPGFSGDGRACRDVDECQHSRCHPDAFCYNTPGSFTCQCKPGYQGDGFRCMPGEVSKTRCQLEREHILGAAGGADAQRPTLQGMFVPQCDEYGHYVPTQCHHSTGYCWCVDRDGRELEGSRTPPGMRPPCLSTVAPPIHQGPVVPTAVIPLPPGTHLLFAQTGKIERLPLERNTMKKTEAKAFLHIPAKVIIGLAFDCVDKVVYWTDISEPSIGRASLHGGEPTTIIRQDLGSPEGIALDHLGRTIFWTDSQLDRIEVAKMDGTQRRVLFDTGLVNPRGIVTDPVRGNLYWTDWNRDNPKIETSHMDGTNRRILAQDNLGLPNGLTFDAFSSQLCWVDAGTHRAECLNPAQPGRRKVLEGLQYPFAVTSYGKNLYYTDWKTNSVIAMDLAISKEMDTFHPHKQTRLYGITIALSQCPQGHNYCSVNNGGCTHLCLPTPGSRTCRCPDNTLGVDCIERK

[1] = molecular target: T2, recombinant nidogen (Mus musculus (Mouse)) (UniProt P10493); test: radioligand competition assay: non-labeled fragment P1 varied, 0.2 nM recombinant nidogen, 125I-laminin fragment P1
T2 sequence: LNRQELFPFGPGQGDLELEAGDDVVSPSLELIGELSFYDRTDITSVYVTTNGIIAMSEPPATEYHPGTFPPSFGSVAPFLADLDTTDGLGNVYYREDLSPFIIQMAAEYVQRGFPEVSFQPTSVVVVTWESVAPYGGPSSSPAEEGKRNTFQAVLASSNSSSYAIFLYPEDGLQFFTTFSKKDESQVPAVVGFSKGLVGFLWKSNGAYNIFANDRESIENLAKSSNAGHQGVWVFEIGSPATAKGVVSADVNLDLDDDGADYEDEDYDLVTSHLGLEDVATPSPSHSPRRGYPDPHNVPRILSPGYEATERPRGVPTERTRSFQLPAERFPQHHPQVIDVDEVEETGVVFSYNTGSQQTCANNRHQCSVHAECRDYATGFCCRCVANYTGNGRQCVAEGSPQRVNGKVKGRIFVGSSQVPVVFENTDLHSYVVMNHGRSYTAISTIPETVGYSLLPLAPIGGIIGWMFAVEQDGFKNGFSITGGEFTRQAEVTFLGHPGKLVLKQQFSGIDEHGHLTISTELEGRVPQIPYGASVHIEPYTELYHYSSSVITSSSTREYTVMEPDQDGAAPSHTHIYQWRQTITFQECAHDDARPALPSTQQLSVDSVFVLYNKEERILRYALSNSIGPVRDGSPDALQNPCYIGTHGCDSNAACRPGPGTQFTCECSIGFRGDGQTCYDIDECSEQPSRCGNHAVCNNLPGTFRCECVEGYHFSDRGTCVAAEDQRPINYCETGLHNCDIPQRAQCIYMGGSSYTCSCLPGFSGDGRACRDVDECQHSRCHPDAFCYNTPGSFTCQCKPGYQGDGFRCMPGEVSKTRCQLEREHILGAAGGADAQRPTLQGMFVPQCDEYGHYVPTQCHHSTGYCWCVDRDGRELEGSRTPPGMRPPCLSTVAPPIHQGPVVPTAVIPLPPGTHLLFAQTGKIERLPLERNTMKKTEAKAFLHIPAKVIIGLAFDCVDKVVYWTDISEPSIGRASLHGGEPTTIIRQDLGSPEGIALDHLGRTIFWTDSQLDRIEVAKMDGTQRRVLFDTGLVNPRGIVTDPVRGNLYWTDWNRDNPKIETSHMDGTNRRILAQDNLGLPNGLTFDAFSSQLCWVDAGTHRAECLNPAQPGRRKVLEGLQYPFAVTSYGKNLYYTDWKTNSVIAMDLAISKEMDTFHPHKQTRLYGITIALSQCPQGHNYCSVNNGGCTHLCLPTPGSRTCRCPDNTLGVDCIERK

[2] = molecular target: T2, recombinant nidogen (Mus musculus (Mouse)); test: radioligand competition assay, average of 14 separate assays: non-labeled fragment P1 varied, 0.2 nM recombinant nidogen, 125I-laminin fragment P1
[3] = molecular target: T2, recombinant nidogen (Mus musculus (Mouse)); test: radioligand competition assay: non-labeled fragment P1 varied, 0.2 nM recombinant nidogen, 125I-laminin fragment P1; remark: listed apart in the source
recombinant nidogen [4] = molecular target: T3, recombinant nidogen (Mus musculus (Mouse), UniProt P10493); test: radioligand competition assay
T3 sequence: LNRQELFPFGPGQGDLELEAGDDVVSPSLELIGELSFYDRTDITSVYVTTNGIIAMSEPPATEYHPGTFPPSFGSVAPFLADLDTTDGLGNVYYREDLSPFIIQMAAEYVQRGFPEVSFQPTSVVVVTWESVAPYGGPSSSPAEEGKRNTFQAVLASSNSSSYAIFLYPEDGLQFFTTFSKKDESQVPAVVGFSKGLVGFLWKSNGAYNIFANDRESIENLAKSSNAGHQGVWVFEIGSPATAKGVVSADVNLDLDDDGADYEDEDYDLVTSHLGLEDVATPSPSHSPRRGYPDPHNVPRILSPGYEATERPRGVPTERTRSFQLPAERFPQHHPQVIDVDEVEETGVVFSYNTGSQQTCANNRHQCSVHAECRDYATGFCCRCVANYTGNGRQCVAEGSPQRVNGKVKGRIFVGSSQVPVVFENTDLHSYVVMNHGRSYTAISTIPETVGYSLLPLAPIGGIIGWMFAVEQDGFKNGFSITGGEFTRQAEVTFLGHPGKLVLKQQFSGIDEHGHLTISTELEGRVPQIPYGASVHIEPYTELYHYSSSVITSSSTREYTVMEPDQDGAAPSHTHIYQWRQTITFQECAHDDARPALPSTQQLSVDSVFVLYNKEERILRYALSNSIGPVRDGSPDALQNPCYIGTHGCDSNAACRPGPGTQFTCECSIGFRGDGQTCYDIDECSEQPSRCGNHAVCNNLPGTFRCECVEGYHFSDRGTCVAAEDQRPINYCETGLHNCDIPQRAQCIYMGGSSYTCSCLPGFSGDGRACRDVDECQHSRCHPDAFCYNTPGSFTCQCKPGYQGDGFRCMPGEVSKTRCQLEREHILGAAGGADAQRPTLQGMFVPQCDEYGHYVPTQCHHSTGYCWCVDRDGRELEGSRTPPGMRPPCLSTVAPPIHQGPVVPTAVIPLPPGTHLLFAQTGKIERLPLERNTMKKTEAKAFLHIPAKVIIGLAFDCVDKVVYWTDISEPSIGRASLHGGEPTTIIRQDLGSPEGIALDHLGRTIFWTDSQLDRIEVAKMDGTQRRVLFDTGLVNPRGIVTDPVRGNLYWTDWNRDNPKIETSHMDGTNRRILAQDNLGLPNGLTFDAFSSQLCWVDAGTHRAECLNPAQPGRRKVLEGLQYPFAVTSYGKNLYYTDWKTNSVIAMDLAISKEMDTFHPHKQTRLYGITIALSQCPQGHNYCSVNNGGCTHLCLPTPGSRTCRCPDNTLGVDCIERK
Description: (§1) A radioligand competition assay was used for measurement of relative binding affinities (Mann K. et al. (1988), Eur. J. Biochem., 178, 71–80; Fox, J. W. et al. (1991), EMBO J., 10, 3137–3146). A fixed concentration of recombinant nidogen (0.2 nM) was incubated overnight at 4° C. with inhibitors at varying concentrations, followed by the addition of ^125I-labeled laminin fragment P1 (0.01 nM; 10,000–20,000 c.p.m.) for the same incubation period. Bound and non-bound fragment P1 was then separated by antibodies against nidogen.

recombinant nidogen [5] = molecular target: T3, recombinant nidogen; test: radioligand competition assay: inhibitor varied, 0.2 nM recombinant nidogen, 125I-laminin fragment P1
Description: as §1

recombinant nidogen [6] = molecular target: T3, recombinant nidogen; test: as above; remark: listed apart in the source
Description: as §1

recombinant nidogen [7] = molecular target: T3, recombinant nidogen; test: radioligand competition assay; end of the range tied to this mutant by its IC50 in Table IV
Description: as §1

recombinant nidogen [8] = molecular target: T3, recombinant nidogen; test: radioligand competition assay: inhibitor varied, 0.2 nM recombinant nidogen, 125I-laminin fragment P1; remark: listed apart in the source
Description: as §1

recombinant nidogen [9] = molecular target: T3, recombinant nidogen; test: radioligand competition assay, synthetic heptapeptide variant
Description: as §1

recombinant nidogen [10] = molecular target: T3, recombinant nidogen; test: radioligand competition assay, nitrated γ1III3-5
Description: as §1

recombinant nidogen [11] = molecular target: T3, recombinant nidogen; test: radioligand competition assay, Tyr-acetylated γ1III3-5
Description: as §1

recombinant nidogen [12] = molecular target: T3, recombinant nidogen; test: radioligand competition assay, reduced and alkylated against the non-reduced chimera
Description: as §1

[13] = molecular target: T2, recombinant nidogen (Mus musculus (Mouse)); test: radioligand competition assay, synthetic heptapeptide variant
[14] = molecular target: T2, recombinant nidogen (Mus musculus (Mouse)); test: radioligand competition assay: inhibitor varied, 0.2 nM recombinant nidogen, 125I-laminin fragment P1
recombinant nidogen [15] = molecular target: T3, recombinant nidogen; test: radioligand competition assay, reduced and alkylated against the non-reduced mutant
Description: as §1

laminin 1: laminin of chain composition α1β1γ1
Kd (nidogen): 0.5 nM

laminin fragment P1
IC50 [1]: 0.05 nM | IC50 [2]: 0.05 nM | IC50 [3]: 0.08 nM

PCQCNDNTDPNAVGNCNRLTGECL (disulfide (positions not given here)) [synthetic loop a,b, oxidized (792-815)]
fold higher IC50 than fragment P1 (recombinant nidogen [4]): 5000 fold | IC50 (recombinant nidogen [5]): 380 nM | IC50 (recombinant nidogen [6]): 270 nM

B1: γ1III4Y819-A (other)
chain: PCQCNDNIDPNAVGNCNRLTGECLKCIANTAGFYCDRCKEGFFGNPLAPNPADKCK
IC50 (recombinant nidogen [6]): 3 nM | fold reduction in activity against wild-type γ1III4 (recombinant nidogen [7]): 30 to 60 fold

B2: γ1III4Y819/825-A (other)
chain: PCQCNDNIDPNAVGNCNRLTGECLKCIANTAGFACDRCKEGFFGNPLAPNPADKCK
IC50 (recombinant nidogen [6]): 1.5 nM | fold reduction in activity against wild-type γ1III4 (recombinant nidogen [7]): 30 to 60 fold

NIDQNAV
IC50 (recombinant nidogen [8]): 2400 nM | fold decrease in activity against the heptapeptide NIDPNAV (recombinant nidogen [9]): 3 fold

NIDPNVV
IC50 (recombinant nidogen [8]): 16000 nM | fold decrease in activity against the heptapeptide NIDPNAV (recombinant nidogen [9]): 16 fold

B3: γ1III3-5, Lys acetylation (other)
chain: PCPCPGGSSCAIVPKTKEVVCTHCPTGTAGKRCELCDDGYFGDPLGSNGPVRLCRPCQCNDNIDPNAVGNCNRLTGECLKCIYNTAGFYCDRCKEGFFGNPLAPNPADKCKACACNPYGTVQQQSSCNPVTGQCQCLPHVSGRDCGTCDPGYYNLQSGQGCE
modifications: lysine amino groups acetylated with acetic acid anhydride
fold decrease in binding activity against unmodified γ1III3-5 (recombinant nidogen [4]): 7 fold | IC50 (recombinant nidogen [5]): 0.27 nM

B4: nitrated γ1III3-5 (other)
chain: PCPCPGGSSCAIVPKTKEVVCTHCPTGTAGKRCELCDDGYFGDPLGSNGPVRLCRPCQCNDNIDPNAVGNCNRLTGECLKCIYNTAGFYCDRCKEGFFGNPLAPNPADKCKACACNPYGTVQQQSSCNPVTGQCQCLPHVSGRDCGTCDPGYYNLQSGQGCE
modifications: tyrosines nitrated with tetranitromethane
fold decrease in binding activity against unmodified γ1III3-5 (recombinant nidogen [10]): 75 fold | IC50 (recombinant nidogen [5]): 3 nM

B5: γ1III3-5, Tyr acetylation (other)
chain: PCPCPGGSSCAIVPKTKEVVCTHCPTGTAGKRCELCDDGYFGDPLGSNGPVRLCRPCQCNDNIDPNAVGNCNRLTGECLKCIYNTAGFYCDRCKEGFFGNPLAPNPADKCKACACNPYGTVQQQSSCNPVTGQCQCLPHVSGRDCGTCDPGYYNLQSGQGCE
modifications: tyrosine hydroxyl groups acetylated with acetic acid anhydride
IC50 (recombinant nidogen [5]): 3 nM | fold decrease in binding activity against unmodified γ1III3-5 (recombinant nidogen [11]): 75 fold

B6: γ1III3ab4cd, reduced (other)
chain: PC(Succinimide(1-Et,3-yl))PC(Succinimide(1-Et,3-yl))PGGSSC(Succinimide(1-Et,3-yl))AIVPKTKEVVC(Succinimide(1-Et,3-yl))THC(Succinimide(1-Et,3-yl))IYNTAGFYC(Succinimide(1-Et,3-yl))DRC(Succinimide(1-Et,3-yl))KEGFFGNPLAPNPADKC(Succinimide(1-Et,3-yl))K
fold decrease in activity on reduction and alkylation (recombinant nidogen [12]): 6 fold | IC50 (recombinant nidogen [6]): 6700 nM

NINPNAV
fold reduction in activity against the heptapeptide NIDPNAV [13]: 100 fold | IC50 [14]: 100000 nM

B7: γ1III4Y819/825-A, reduced (other)
chain: PC(Succinimide(1-Et,3-yl))QC(Succinimide(1-Et,3-yl))NDNIDPNAVGNC(Succinimide(1-Et,3-yl))NRLTGEC(Succinimide(1-Et,3-yl))LKC(Succinimide(1-Et,3-yl))IANTAGFAC(Succinimide(1-Et,3-yl))DRC(Succinimide(1-Et,3-yl))KEGFFGNPLAPNPADKC(Succinimide(1-Et,3-yl))K
fold decrease in activity on reduction and alkylation (recombinant nidogen [15]): ~300 fold | IC50 (recombinant nidogen [6]): 430 nM
